Reference: ChEMBL document CHEMBL2073859, “Transport of 7-ethyl-10-hydroxycamptothecin (SN-38) by breast cancer resistance protein ABCG2 in human lung cancer cells” (Biochem Biophys Res Commun, 2001)

Columns and labels:
[1] = substrate: CCc1c2c(nc3ccc(OC[C@@H]4O[C@H](C(=O)O)[C@@H](O)[C@H](O)[C@H]4O)cc13)-c1cc3c(c(=O)n1C2)COC(=O)[C@]3(O)CC; experiment: (§1) TP_TRANSPORTER: uptake in membrane vesicle from PC-6/SN2-5H cells; assay type: functional, cell membranes
[2] = substrate: CCc1c2c(nc3ccc(O)cc13)-c1cc3c(c(=O)n1C2)COC(=O)[C@]3(O)CC; experiment: as §1; assay type: functional, cell membranes

B1: Broad substrate specificity ATP-binding cassette transporter ABCG2 (Homo sapiens) (protein)
chain: MSSSNVEVFIPVSQGNTNGFPATASNDLKAFTEGAVLSFHNICYRVKLKSGFLPCRKPVEKEILSNINGIMKPGLNAILGPTGGGKSSLLDVLAARKDPSGLSGDVLINGAPRPANFKCNSGYVVQDDVVMGTLTVRENLQFSAALRLATTMTNHEKNERINRVIQELGLDKVADSKVGTQFIRGVSGGERKRTSIGMELITDPSILFLDEPTTGLDSSTANAVLLLLKRMSKQGRTIIFSIHQPRYSIFKLFDSLTLLASGRLMFHGPAQEALGYFESAGYHCEAYNNPADFFLDIINGDSTAVALNREEDFKATEIIEPSKQDKPLIEKLAEIYVNSSFYKETKAELHQLSGGEKKKKITVFKEISYTTSFCHQLRWVSKRSFKNLLGNPQASIAQIIVTVVLGLVIGAIYFGLKNDSTGIQNRAGVLFFLTTNQCFSSVSAVELFVVEKKLFIHEYISGYYRVSSYFLGKLLSDLLPMRMLPSIIFTCIVYFMLGLKPKADAFFVMMFTLMMVAYSASSMALAIAAGQSVVSVATLLMTICFVFMMIFSGLLVNLTTIASWLSWLQYFSIPRYGFTALQHNEFLGQNFCPGLNATGNNPCNYATCTGEEYLVKQGIDLSPWGLWKNHVALACMIVIFLTIAYLKLLFLKKYS
Km [1]: 26 µM | Km [2]: 4 µM
